Molecular target: PKS12Δ1 E20S mutant protein (M. tuberculosis H37Rv) (UniProt I6XD69)

PKS12Δ1 E20S mutant protein (from UniProt I6XD69 1-4151) (enzyme)
catalytic turnover (fold decrease): 5
product formation by quantitative radio-HPLC (fold decrease): > 5

— PMC2443190, “Novel Intermolecular Iterative Mechanism for Biosynthesis of Mycoketide Catalyzed by a Bimodular Polyketide Synthase” (PLoS Biology, 2008)
